Numbering of substitutions follows the chain as printed. Names may count otherwise.
B1: RIP2CARD (residues 431-540), wild type, HIS-MBP tag cleaved (domain or fragment, human, UniProt O43353 431-540, looked up)
chain: LQPGIAQQWIQSKREDIVNQMTEACLNQSLDALLSRDLIMKEDYELVSTKPTRTSKVRQLLDTTDIQGEEFAKVIVQKLKDNKQMGLQPYPEILVVSRSPSLNLLQNKSM
notes: RIP2 CARD domain, human, residues 431-540; The atomic model of the filament comprises residues P433 to Q518; also called RIP2CARD filament; NOD2CARDS^s-WT; source: E. coli Rosetta 2, purified (amylose resin, Superose6), HIS-MBP cleaved by P3C, Ni-NTA, dialysis; not shown: His, N-terminal, cleaved; MBP, N-terminal, cleaved
B2: RIP2CARD (431-540) T452A, HIS-MBP tag cleaved (domain or fragment, human, UniProt O43353 431-540, looked up)
chain: B1 chain with T22A
notes: RIP2 CARD domain, human, residues 431-540; source: E. coli Rosetta 2, co-purified with NOD2CARDS^s on amylose resin, tags cleaved by proteases; not shown: His, N-terminal, cleaved; MBP, N-terminal, cleaved
B3: RIP2CARD (431-540) C455A, HIS-MBP tag cleaved (domain or fragment, human, UniProt O43353 431-540, looked up)
chain: B1 chain with C25A
notes: as for B2
B4: RIP2CARD (431-540) E453A, HIS-MBP tag cleaved (domain or fragment, human, UniProt O43353 431-540, looked up)
chain: B1 chain with E23A
notes: as for B2
B5: RIP2CARD (431-540) C455S, HIS-MBP tag cleaved (domain or fragment, human, UniProt O43353 431-540, looked up)
chain: B1 chain with C25S
notes: RIP2 CARD domain, human, residues 431-540; also called RIP2CARD-C455S; NOD2CARDS^s-C455S; source: E. coli Rosetta 2, co-purified with NOD2CARDS^s on amylose resin, tags cleaved by proteases; not shown: His, N-terminal, cleaved; MBP, N-terminal, cleaved
B6: RIP2CARD (431-540) T452K, HIS-MBP tag cleaved (domain or fragment, human, UniProt O43353 431-540, looked up)
chain: B1 chain with T22K
notes: RIP2 CARD domain, human, residues 431-540; also called RIP2CARD-T452K; NOD2CARDS^s-T452K; source: E. coli Rosetta 2, co-purified with NOD2CARDS^s on amylose resin, tags cleaved by proteases; not shown: His, N-terminal, cleaved; MBP, N-terminal, cleaved
B7: RIP2CARD (residues 435-540), MBP tag cleaved (domain or fragment, human, UniProt O43353 435-540, looked up)
chain: IAQQWIQSKREDIVNQMTEACLNQSLDALLSRDLIMKEDYELVSTKPTRTSKVRQLLDTTDIQGEEFAKVIVQKLKDNKQMGLQPYPEILVVSRSPSLNLLQNKSM
notes: RIP2 CARD domain, human, residues 435-540; Isotope-labelled for solid-state NMR; also called RIP2CARD VV; RIP2CARD filament; source: E. coli Rosetta 2 (BL21 star for NMR), purified (amylose resin), MBP cleaved by TEV; not shown: MBP, N-terminal, cleaved

How the values were obtained:
[1] = target: the molecule itself; experiment: cryo-EM structure; helical reconstruction of NOD2CARDS^s-RIP2CARD filaments, filament ends left out; 3.94 Å
[2] = target: the molecule itself; experiment: negative-stain EM; amylose eluate (with co-purified NOD2CARDS^s) at 2.5 mg ml^−1, polymerization stimulated by proteases for 4 h at room temperature
[3] = target: the molecule itself; experiment: negative-stain EM; void-volume fraction of size-exclusion chromatography after cleavage of the MBP tag by TEV
[4] = target: T1, NOD2ΔLRR (residues 1-619), MBP tag cleaved (human, UniProt Q9HC29 1-619); experiment: immuno-gold labelling with negative-stain EM; purified NOD2ΔLRR mixed with a 50-fold excess of MBP-RIP2CARD, polymerization induced by TEV; rabbit anti-NOD2 and gold-conjugated anti-rabbit; conditions: both partners purified
T1 construct: NOD2 (nucleotide oligomerization domain 2), human, CARDS and NOD without the LRR domain, residues 1-619; A less aggregated SEC fraction was used; the protein forms soluble aggregates; also called MBP-NOD2ΔLRR before cleavage; source: sf21 insect cells (baculovirus), purified (amylose resin, TEV cleavage, size exclusion chromatography); not shown: MBP, N-terminal, cleaved
T1 sequence (Q9HC29 1-619, stated change not applied): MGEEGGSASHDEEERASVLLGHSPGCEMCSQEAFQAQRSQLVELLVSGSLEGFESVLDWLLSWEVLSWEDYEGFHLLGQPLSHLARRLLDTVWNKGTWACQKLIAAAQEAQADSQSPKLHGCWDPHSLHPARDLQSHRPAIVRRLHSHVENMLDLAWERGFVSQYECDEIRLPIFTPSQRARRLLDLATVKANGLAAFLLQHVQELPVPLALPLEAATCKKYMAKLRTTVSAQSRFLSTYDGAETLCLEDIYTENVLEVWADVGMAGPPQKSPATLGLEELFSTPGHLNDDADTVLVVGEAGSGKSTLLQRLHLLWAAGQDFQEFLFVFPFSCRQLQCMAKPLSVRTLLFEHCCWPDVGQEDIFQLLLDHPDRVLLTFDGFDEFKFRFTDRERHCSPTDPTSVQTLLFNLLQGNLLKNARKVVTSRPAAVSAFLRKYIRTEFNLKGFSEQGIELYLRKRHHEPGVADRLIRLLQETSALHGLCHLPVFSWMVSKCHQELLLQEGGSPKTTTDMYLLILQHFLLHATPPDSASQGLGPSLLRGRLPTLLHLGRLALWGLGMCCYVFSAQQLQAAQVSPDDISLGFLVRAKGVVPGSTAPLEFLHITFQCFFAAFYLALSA

| Binder | binding result [2] | further results |
| --- | --- | --- |
| B1 |  | binding result [1]: binds |
| B2 | binds |  |
| B3 | binds |  |
| B4 | binds |  |
| B5 | binds |  |
| B6 | binds |  |
| B7 |  | binding result [3]: binds; binding result [4]: binds |

From article PMC6168553 (Nature Communications, 2018)
